# Tests used:
# [1] = Skin permeation experiment; assay type: in vivo, C57BL/6 mice; conditions: mouse dorsal skin, 4 h after administration, laser confocal
# Procedure: C57BL/6 mice each with a body weight of 20 g were selected and randomly divided into four groups. The hair on the back of each mouse was removed with a depilatory cream. After 24 h of raising, a silicone diffusion cell was fixed on the back, and Cy5-labeled ^Cy5BSA and ^Cy5BSA-OPDMA were added at equal amounts. 4 h after the administration, the dorsal skin of each mouse was carefully collected, rinsed 3 times with PBS, and sectioned by a freezing microtome to produce 20 μm-thick skin sections. A skin permeation effect of each solution was observed under a laser scanning confocal microscope.
# [2] = Intraocular permeation experiment after eye-dropping administration; assay type: in vivo; conditions: mouse, 4 h, laser confocal imaging of eyeball sections
# Procedure: 6.6 mg of BSA ([…]) was dissolved in 1 mL of PBS at pH 7.4, 66 μg of a fluorescent dye Cy5-NHS was added, and stirring was conducted for 6 h at room temperature. Ultrafiltration-washing was repeated multiple times to produce fluorescently-labeled ^Cy5BSA. The conjugate ^Cy5BSA-OPDMA and other protein conjugates were labeled by the same method.
# Upper and lower eyelids of each mouse were gently pulled open with a cotton swab. Solutions of ^Cy5BSA and ^Cy5BSA-OPDMA in PBS each were dropped to a conjunctival sac of a mouse, and a few seconds later, eyelids were slowly closed. At 4 h after the eye-dropping administration, eyeballs were immediately collected, washed three times with PBS, fixed overnight in an FAS eyeball fixative solution, and then transferred to a 30% sucrose solution for dehydration. When sank to a bottom of the solution, eyeballs were carefully taken out, embedded with an optimal cutting temperature (OCT) embedding medium, and sectioned by a freezing microtome to produce 10 μm-thick eyeball sections. The eyeball sections were stained with a 4′,6-diamidino-2-phenylindole (DAPI) dye, and finally the fluorescence distributions of each solution in eyeballs and retinas were observed under a laser scanning confocal microscope. The fluorescence distribution inside a retina of a mouse eyeball was analyzed with Image J.
# CT26 tumor spheres = assay: Permeation in multicellular tumor spheres; assay type: cell-based; conditions: BSA 20 μg/mL, 2 h incubation
# Procedure: The permeability of albumin and a conjugate BSA-OPDMA thereof was verified with multicellular tumor spheres. 1.0 mL of DMEM and the prepared CT26 tumor spheres were added to a confocal imaging dish, and then 20 μL of ^Cy5BSA-OPDMA or ^Cy5BSA was added (where a concentration of BSA was 20 μg/mL). After being incubated for 2 h, tumor spheres were subjected to laser scanning confocal microscopy imaging every 20 μm along a Z-axis. […] Moreover, the more the OPDMA bonded, the stronger the promotion on the permeability of BSA. […] OPDMA with a molecular weight of 10 k could more efficiently promote the penetration of ^Cy5BSA than OPDMA with a molecular weight of 5 k. This conclusion was further confirmed by the quantitative fluorescence data in FIG. 13.
# laser-induced CNV model = assay: Laser-induced choroidal neovascularization (CNV) model, eye drops; assay type: in vivo, C57BL/6J mice; conditions: eye drops 2 μL, 10 mg/ml of aflibercept, four times a day for 7 d, day 7
# Excerpt: 40 female C57BL/6J mice at 6 to 8 weeks were selected, and the anterior segments of both eyes and the fundus were examined to be normal before the experiment. An unilateral eye of each mouse was selected and subjected to laser photocoagulation to establish a CNV model, where a corresponding contralateral eye was not treated. Then treated mice were randomly divided into a PBS group, an aflibercept-OPDMA conjugate group, an OPDMA+aflibercept mixture group, and an aflibercept intravitreal injection group. Immediately after the laser photocoagulation, mice in each group were administered with eye drops at a dose of (2 μL, 10 mg/ml of aflibercept) four times a day consecutively for 7 d. For the injection group, a dose was 10 μg/mouse, and the injection was conducted merely once during the experiment. After laser photocoagulation, on day 7 post-modeling, choroidal flat mounts were prepared from the experimental eyes. The flat mounts were subjected to antibody staining using IB4 and imaged under a fluorescence microscope. Thee neovascularization area was measured using image J software. These indices were used to assess the treatment efficacy of each group.
Substance,skin permeation effect (fluorescence in skin sections) [1],intraocular permeation (fluorescence distribution in eyeballs and retinas) [2],permeation in tumor spheres (fluorescence) (CT26 tumor spheres),therapeutic effect on CNV (neovascularization area) (laser-induced CNV model),therapeutic effect on CNV (neovascularization area) (laser-induced CNV model; listed as aflibercept-OPDMA conjugate)
^Cy5BSA-OPDMA: Cy5-labeled conjugate of BSA with OPDMA; chain number and weight not stated in the text,the fluorescence could penetrate into the deep skin,"could penetrate into intraocular cells, especially a retina in a posterior segment of an eye",presented a strong red fluorescence within tumor spheres,,
^Cy5BSA: BSA fluorescently labeled with Cy5-NHS [reference compound],faint red fluorescence was observed merely in a surface layer of the skin,only adhered to a surface of an eyeball,could only reach the edges of tumor spheres,,
aflibercept-OPDMA: conjugate of aflibercept with tertiary amine oxide polymer OPDMA,,had a similar intraocular permeation ability,,could indeed exert a therapeutic effect after being dropped to eyes,prominent therapeutic effect
aflibercept: the protein (aflibercept) itself,cannot permeate into the skin,,,,

# — patent US20250325680A1, “HIGH-PERMEABILITY PROTEIN OR POLYPEPTIDE CONJUGATE AND USE THEREOF” (Hangzhou Tito Biotechnology Partnership Enterprise ( …, priority 2023, published 2025)
